# Source: the DeepSol protein solubility set
# Experiment: soluble on expression in E. coli; label from the status in PepcDB or PDB records
row,Sequence,soluble on expression in E. coli
1,MNNHIEALSYYLGAFVDELTLLNVCDVVISPGSRSTPIALLMEQHEGMNTYLHVDERSAGFFALGIAKAKKRPVALLCTSGTAAANYYPAVCEAFHSRVPLIVLTADRPHELRDVGAPQAMNQINLYGTFVKQFTEMALPEASEAMYHYARLTTQRMIASACLAPQGPVHLNFPVREPLIPDFSLESLWDKGRGEYTGVVQQGNAVMPSEYVDSLVGRLSHMEKGLIICGDDSHSEIAAFATQLAEKTGYPILADPLSNIRSGHHDKTMVIDCYDTFLRNELLKETWKPDVLIRFGGMPVSKALTQFIKKQTKAVHIVVDESGQWRDPALVATEVVQASDIAFCSALIEKMPVMKKNDWFRMWQHINEKTKETLREMETYDTAFEGRVITDIVRVLPEGATLFASNSMPIRDTDSFFFTSDKNIQVMANRGVNGIDGIISTALGASMICDPLVLVIGDLSFYHDLNGLLAAKLHELNITIVVVNNDGGGIFSFLPQYEKKEHFESLFGTPIGLDYEHVVTMYGGSFSRVNGWEQFREEVQKGVTTEGLHVVEICTNRDENLTLHRTLWAKTQDVITTSLQGESK,soluble
2,SRRLRTPLQDLTRAATSLAAGNSRIRVPAGGAGPEVATLAHAFNTMADRLEHTEQVRRQMLSDLAHEMGTPLSVLTAYLDGLQDGVVDWNNANHTIMADQLTRLTRLMEDIDYVSRAQEHRIDLDLAEEGLGD,not soluble
3,MGSDKIHHHHHHTEYPLPAAQSRLIGENQYYTVPEGKHTLEDIAAKYQLGLSNLLEANPGVDPFLPKPGSQLLIPLQLILPNAPREGIVINVAEMRLYYYPKGKKTVEVLPIGIGQIGKDTPENWVTSVQRKRANPTWTPTPRIRKEYAAKGEILPAVWPAGPDNPMGLYALYIGNLYAIHGTNASFGIGLRVSQGCVRLRHEDIEHLFKNVPVGTRVQFVNQPIKATEEPDGKRYLAVHQPLSRTVAEFESNEPVAISLPRDIAKFIAKADTNSSVIKKLLDERTGVPMRINQ,not soluble
4,MSLKTYDAFPEPIGGYTVGRTQMDFEYTASDHSKRELTAFVYYPSDSSEGKTTSTYMFPEVYEMFNEQPLVTALKDVFSIDIKTQCYDDLALSGKEKRYPVLFYVCGGGGSPEWGTVICTDLASMGYVVVSIGHQNSTMYKRKDGRLFNVSKDFSDVIMAFSEDPEMLALAGKMEMRPDDETAIEMCHNVLTLPILAKLTEYSELQAEDVRYVADYLYKLDSGELNSIFKGRLLLDIGMGIVGHSYGGPTTAIVCRDDDRFACGIGLDSGAFGLLDSDLKKPFLLLFCEPNYNMNAIIGANNSMETYYFSVDRVAHLDYCDIVFTSVNEELRGERDAMEMRNLVTDYTKNFFDHYILLKAASVESLAYDGVDLIKKTSNKEGHHHHHH,soluble
5,MQLNMMLENRDYTLVIDHSASMAKPDGNSENSKWQAIQESTFALARKCEEFDSDGITVYLFSKTFQRYDYVNSAKVKQLFAENSPSETTNLVGVLQDAINSYFQRKSLGKTKPAGEVILVITDGAPVDSQAVCEVIIKATHLVESANELRISIIQVGSDSHATKFLKALDDHLQSVGAKFDICDTITLDELEITNLSDVLMKAITDLEHHHHHH,soluble
6,TGIEQLEFQRESSVSTTLQGVCEPILAILVQGKKEALLCDETYRYSAAQYLVVSVDLPLSAFIVEATPEKPYLGFKLNLDPRQLCDIITAQTNVIEEKKNSVRGLFVSTIDAPLLDCAMRLTRLLDTPQDIPILAPMIIREIYYRLLMGEQGEAV,not soluble
7,MNNMKKYLSLCIMLLCLCSTVMAQQEKVVVKGVVTDEAKEPLIGVNVTVKDMPGLGSITDMNGHYSITMEPYRQLVFTYIGYESKEVMVKEQRTINVVMKESVTRAVDEVVITGTGVQRKLTQTGAITTVDVGELKRNPSSSIVNALAGNVPGIMARQTSGQPGKNISEFWIRGISTFGANSSAYVLVDGFERSMDEINIEDIETFTVLKDASATAIYGSKGANGVVLITTKRGKAGKIKIDAKVETTYNTRTVLQSSKTDLLMPA,not soluble
8,MADEIFKAFIGGLPYDSIATDIETILKHCKFTDEELKKFDIHLVHDRDSGSFKGFAYVTFENEQQMNTAISGLNGADFGNRVLKVNRAQQRDRSDRGGGRGGRGGNFGDRGGRGRGAGGFRRGGEGGRFNEGERRGGFGGGGHRGGYRQRRESEEQHKAEETSDPSAPPAERPRLNLKPRTTDAAEIEARKKQEEEETKRRQEKLFQ,not soluble
9,AITGIFFGSDTGNTENIAKMIQKQLGKDVADVHDIAKSSKEDLEAYDILLLGIPTWYYGEAQCDWDDFFPTLEEIDFNGKLVALFGCGDQEDYAEYFCDALGTIRDIIEPRGATIVGHWPTAGYHFEASKGLADDDHFVGLAIDEDRQPELTAERVEKWVKQISEELHLDEILNA,soluble
10,MGSDKIHHHHHHMEKLYLKIGNQDEFDICEKVQGLHFLSDDSTPVTTNQFLEISGADGSQFQYATFGKYQVVANFFLEFKSWEDYKLAKHQINRIFSTKKLIRMRTNVESAIVRYVYPNFPEIKPISDGANSSTFSVNFDNPSGYRYSIDRSDELSKVQYGMYLLDNIYPEYRFTDKSFRVYNPSDIAIDPYLGKHDLKIISKFSGNSLKITNTTNGTSWSYNKSSNGSETVLLDGIVTTVNGNPATVNTDYGHIVLNTGWNDIVVSGTNSNDITFSFPFIYI,not soluble
11,MKLEASCGTATSEVPKPEKKTARDAEPSSETRPQEVEAEPRSGSGPEAEAEPLDFVVATERESEEVLAISGGIYGGLDYLPSRYHSWLRDPDRTVVLAKRNGGVIALESVNVIDAGETVLVEGLRVAPWERGKGVAGLLQRFCSQLVKRQHPGVKVARLTRDDQLGPRELKKYRLITKQGILLVRFNASALLAGLGARLAALRTSGTFSPLPTEAVSEAGGDVARLLLSPSVQRDVLPGGTIIQDWQPYRPSESNLRLLAAKGLEWRVDSRARPRVLTLCTRPFPIPHGGDGTWRYLNIDAFGSDGAQVQSQLLWHLQRQAPRLVGLNVMCQLFLEPQLWSQLADFCQVGLGLELVKGYTEQYLLEADI,soluble
12,MRLIHLSDIHAGKNLGRVSRNEDVVYALNQVVDFCKENKPDLVLVAGDVFDKANPDNEAKEIIFDFFLKLHSLNIPSVVISGNHDSYEFMKSLKKLLQVIDVYVVPKPNLEECVLDVKGLKIACLPYPSERVLTRAGEDSKLSYAVLVEKAIKYLYEKVKDAPLKVLLSHLFIAGSKYTRTEREATITDYYAVEPSAIPEGFDYVALGHVHRYQRIEKAPTHVYYTGSLFQLDFSEAGQEKFFNFVELKEGEPPHVEAIKLSLKNPLHTFEINQENYAKELEKIKDVQGYIKVHLIVKDKTKMHLVAEKVKEALGEKLIKLELLTPEEAIKKRLEEEREIQKLNLLDLYRDYFKESYGREVPQEIIKTVSQLLEQVHES,soluble
13,DVKIEKLKDNLYVYTTYNTFNGTKYAANAVYLVTDKGVVVIDCPWGEDKFKSFTDEIYKKHGKKVIMNIATHSHDDRAGGLEYFGKIGAKTYSTKMTDSILAKENKPRAQYTFDNNKSFKVGKSEFQVYYPGKGHTADNVVVWFPKEKVLVGGCIIKSADSKDLGYIGEAYVNDWTQSVHNIQQKFSGAQYVVAGHDDWKDQRSIQHTLDLINEYQQKQKASN,soluble
14,MSLALAIFDLDETLIHGDCATLWSEQMGRLGWVDSESFMRRNHELMDAYSHGKLAMEEFMDFSLEPMSGRTPEEVAHLVEPWVEEVIEPIIFSDACKAIAAHRQAGDRILVISASGTHLVKPIAARLGIDEVLGIELEVQHGVYSGRTVGTLTYREGKITRLLQWLDAEEENLEGATFYSDSRNDLPLLLRVDHPQVVNPDPVLREHAQKAGWPIHHWKEGHHHHHH,soluble
15,MGSDKIHHHHHHMDSVSPELISNNQGYDRSHKQRLECLICNYHVDLNDKSAFSTFFCNVRAFRDEKFPIWRCPTCQTIHCLDVVDIDSYYAKYPFAEAKLTLPFRLCYQNLCQKMIEHGFSKTHSFLDYGCGNGLVVQYLRENGFANAYGYDPYAPKESFGDATVLQRGPFDYILLQDIIEHVEDPHALLSKLDSLLAPGGYLLLGTPNATNIDINRPELSNYYNAVHVPYHIHIYTREVVESLGKQQGWEVVKFFNRGYDDTRWFGLNTRTWNEYQSISDGTFDVIFEEINIWQALKSYRFLFYAFFGYWLSLRTDMTIMFRKKITD,not soluble
16,MGHHHHHHSHMAGLQRLASHLPVGVMLPHNTTEAPGPHSAKQDSYEQGDSSQQSLKGHLRNNFQKQLLSNKELILDKVYTHPKWNTQTKARSYSYPHCTGISQQDPESDSQGQGNGLFYSSGPQSWYPKANNQDFIPFTKKRVGVDRAFPLKPMVHRKSCSTGEAGTDGDHNVYPRPPEPREFSSRNFGVRNQGNFSVVGTVLAATQAEKAVANFDRTEWVQIRRLEAAGESLEEEIRRKQILLRGS,not soluble
17,MIMFNYQQTSQSCVKCGKCIPSCTIYNIHPDEVTSPRGFIDLLGAYQRGELELDKNAKDIFEKCFLCTNCTYVCPNLLPTDQVIENVRAEIAQKFGIAWFKRAYFFLLRNRWLMDWGLEHHHHHH,not soluble
18,MGSDKIHHHHHHMTTLISFLGKGIADKTTGYRTATYRFDDDSKHTTPYFGLALAGYLRPERLILVGTAGSMWDVFFEQQDASDDDVLALIDAVRESRVDADMLSAQEKRLTKRLGLPVICRLIPYARDAAEQTEVLLTLAKLVHRSEEVFLDVTHGFRHLPMLALVAARYLAHVKDVKVRGLYYGALEMTSTNGETPVLQLDGMLQMLDWVESLATYNKDGDYGVFASLLQQDGLPEGKAKQLTRAAYFERSSNPVKARETLGSVFSAIKTHNGPMGVLFRDALTERINWFKEPDRAAWELALADAYLERRDYVRAVIYLYESFVTRAVLEHKLNPNDFSERDEAWKDARQDNKQVRKLEYLRNALAHGIKSDDKEIIRMVNDENCLDDQLKKFRRSLFN,not soluble
19,MSLELSPTYQTERFTKFSDTLKEFKIEQNNEQNPIDPFNIIREFRSAAGQLALDLANSGDESNVISSKDWELEARFWHLVELLLVFRNADLDLDEMELHPYNSRGLFEKKLMQDNKQLYQIWIVMVWLKENTYVMERPKNVPTSKWLNSITSGGLKSCDLDFPLRENTNVLDVKDKEEDHIFFKYIYELILAGAIDEALEEAKLSDNISICMILCGIQEYLNPVIDTQIANEFNTQQGIKKHSLWRRTVYSLSQQAGLDPYERAIYSYLSGAIPNQEVLQYSDWESDLHIHLNQILQTEIENYLLENNQVGTDELILPLPSHALTVQEVLNRVASRHPSESEHPIRVLMASVILDSLPSVIHSSVEMLLDVVKGTEASNDEGHHHHHH,not soluble
20,MGSDKIHHHHHHMPEAAFTHERRCSSLCAFVSSSQSPTTNAETIREARSSRCDKTSMTPSFKELKSRFGLDEINTTDAYIIEALIIMAAISLMMSRVIVDELRSLEARQREVEAAADADESASRLPRRRCSLAVERHAHLIQLYLMVELGYELPDLDELLLWASRNPNPHRDRLREQVERGEFGFGRH,not soluble
21,MSLQRPLGNHHDGPDTLLVTSDATQTELVTAETEKLRELITRARFVLFDFDGPICRLFAGHKAERVAVELVEWLEGRGLHALLSETEREALDPHIVLRAVDRRHPGSDLVAELEERLTKQELRAASSAMPTAYADPLIRTWTAVGARLAIATNNSPRVARKYVASRGLSACFAPHIYGRTQDLHLLKPDPHCLNRALNAMGAAPSASLMIGDTPSDYFAAQRAGVPFLGYARNDRKEKLLKEAGAEEIVGSLELVLRVLREQSASAREGHHHHHH,soluble
22,MSLNEELIKTGDFAKMCAVTKKALYVYEAKGLLKPAVVKDNGYRYYRLEQVDQVATIRLLEKLGSSLQEVGDFFALKDLNERQKYLGKQQEAVEREMAELGKIKSSLEFFDQRISDLKQTGLKKWRLRLARKNTWKSVLLGMVFREGHHHHHH,not soluble
